Data on 32 molecules can be found in publication PMC12636033, “Chemical Engineering of Transcription Factors Uncovered Cell-Permeable μMax Modulators”.

B1: dBr_Jan07_10488 (dsDNA)
DNA 1: ACCTCGGACATGCACATTTGTCTTAAACCACGTGCGGTCTGTGTTCCGTTGTCCGTGCTG
DNA 2: CAGCACGGACAACGGAACACAGACCGCACGTGGTTTAAGACAAATGTGCATGTCCGAGGT
B2: dBr_Jan07_23485 (dsDNA)
DNA 1: CAGTGTAGAAAGTGAACACGTGTGACACGCCTGGTTGTCTGTGTTCCGTTGTCCGTGCTG
DNA 2: CAGCACGGACAACGGAACACAGACAACCAGGCGTGTCACACGTGTTCACTTTCTACACTG
B3: dBr_Jan07_01836 (dsDNA)
DNA 1: GTCGAGAATCCAATACGCCACGTGCATACGTACGTCGTCTGTGTTCCGTTGTCCGTGCTG
DNA 2: CAGCACGGACAACGGAACACAGACGACGTACGTATGCACGTGGCGTATTGGATTCTCGAC
B4: dBr_Jan07_28926 (dsDNA)
DNA 1: CGCAGCCATTACCGCGTGGGAGTATTCGCCCGTACGGTCTGTGTTCCGTTGTCCGTGCTG
DNA 2: CAGCACGGACAACGGAACACAGACCGTACGGGCGAATACTCCCACGCGGTAATGGCTGCG
B5: dBr_Jan07_20507 (dsDNA)
DNA 1: GTGCCCGATTGTCTACGGCACCACGTGTGTTACCAGGTCTGTGTTCCGTTGTCCGTGCTG
DNA 2: CAGCACGGACAACGGAACACAGACCTGGTAACACACGTGGTGCCGTAGACAATCGGGCAC
B6: dBr_Jan07_40749 (dsDNA)
DNA 1: CTTCATGTCGCCCGCGTGGGTTGCCACACCAAGTGCGTCTGTGTTCCGTTGTCCGTGCTG
DNA 2: CAGCACGGACAACGGAACACAGACGCACTTGGTGTGGCAACCCACGCGGGCGACATGAAG
B7: dBr_Jan07_03394 (dsDNA)
DNA 1: ATGGACCAATTGCGCGGAATGACGTGTCGCGCACGTGTCTGTGTTCCGTTGTCCGTGCTG
DNA 2: CAGCACGGACAACGGAACACAGACACGTGCGCGACACGTCATTCCGCGCAATTGGTCCAT
B8: dBr_Jan07_13904 (dsDNA)
DNA 1: CGCTGCCCCATATTTGTCATGCGTTTGCGGCACGTGGTCTGTGTTCCGTTGTCCGTGCTG
DNA 2: CAGCACGGACAACGGAACACAGACCACGTGCCGCAAACGCATGACAAATATGGGGCAGCG
B9: dBr_Jan07_16170 (dsDNA)
DNA 1: TACTAGATTACTACAGACGTTTGCGATCACGTGCATGTCTGTGTTCCGTTGTCCGTGCTG
DNA 2: CAGCACGGACAACGGAACACAGACATGCACGTGATCGCAAACGTCTGTAGTAATCTAGTA
B10: dBr_Jan07_02651 (dsDNA)
DNA 1: TGCATAACGACCGGCACGTGCCTTTCATATGTATCTGTCTGTGTTCCGTTGTCCGTGCTG
DNA 2: CAGCACGGACAACGGAACACAGACAGATACATATGAAAGGCACGTGCCGGTCGTTATGCA
B11: dBr_Jan07_37497 (dsDNA)
DNA 1: CCAGTTAGTAACACGTGTCCACTCCTTGTCGTACAGGTCTGTGTTCCGTTGTCCGTGCTG
DNA 2: CAGCACGGACAACGGAACACAGACCTGTACGACAAGGAGTGGACACGTGTTACTAACTGG
B12: dBr_Jan07_27306 (dsDNA)
DNA 1: ACTATACAGTTTATTCATACACGGGTGCCTGCACGTGTCTGTGTTCCGTTGTCCGTGCTG
DNA 2: CAGCACGGACAACGGAACACAGACACGTGCAGGCACCCGTGTATGAATAAACTGTATAGT
B13: dBr_Jan07_25426 (dsDNA)
DNA 1: TCTCTGTGCGGCGGGGTCCATAGCACGCACGTGTTAGTCTGTGTTCCGTTGTCCGTGCTG
DNA 2: CAGCACGGACAACGGAACACAGACTAACACGTGCGTGCTATGGACCCCGCCGCACAGAGA
B14: dBr_Jan07_24960 (dsDNA)
DNA 1: CGCAAAGCATTATCAACCTGGGTGCCTATCACGTGGGTCTGTGTTCCGTTGTCCGTGCTG
DNA 2: CAGCACGGACAACGGAACACAGACCCACGTGATAGGCACCCAGGTTGATAATGCTTTGCG
B15: dBr_Jan07_31948 (dsDNA)
DNA 1: TGTCATTACCTGTCCGAGCAGGACAAAAAACCACGTGTCTGTGTTCCGTTGTCCGTGCTG
DNA 2: CAGCACGGACAACGGAACACAGACACGTGGTTTTTTGTCCTGCTCGGACAGGTAATGACA
B16: dBr_Jan07_02368 (dsDNA)
DNA 1: CTGTAGAACTGGCATCTTCAATCCACCGCGTGGTGAGTCTGTGTTCCGTTGTCCGTGCTG
DNA 2: CAGCACGGACAACGGAACACAGACTCACCACGCGGTGGATTGAAGATGCCAGTTCTACAG
B17: dBr_Jan07_14817 (dsDNA)
DNA 1: AGCGAGAGGCTGCTCACTCGTGGCAACACCCACGTGGTCTGTGTTCCGTTGTCCGTGCTG
DNA 2: CAGCACGGACAACGGAACACAGACCACGTGGGTGTTGCCACGAGTGAGCAGCCTCTCGCT
B18: dBr_Jan07_23034 (dsDNA)
DNA 1: TCCGTACGGTCTCGTTCCATAGCTTGCTACCATGTGGTCTGTGTTCCGTTGTCCGTGCTG
DNA 2: CAGCACGGACAACGGAACACAGACCACATGGTAGCAAGCTATGGAACGAGACCGTACGGA
B19: dBr_Jan07_08390 (dsDNA)
DNA 1: GTATTGTTGCGTATGTCACGTGGTACAAAACCCAGGGTCTGTGTTCCGTTGTCCGTGCTG
DNA 2: CAGCACGGACAACGGAACACAGACCCTGGGTTTTGTACCACGTGACATACGCAACAATAC
B20: dBr_Jan07_32059 (dsDNA)
DNA 1: CCGGTCACTGCCGGTGATGCCCTGCTTTATCACGTGGTCTGTGTTCCGTTGTCCGTGCTG
DNA 2: CAGCACGGACAACGGAACACAGACCACGTGATAAAGCAGGGCATCACCGGCAGTGACCGG
B21: dBr_Jan07_17844 (dsDNA)
DNA 1: AATGGACTCGTTTTTTTTGCGTTATTAGACCACGCGGTCTGTGTTCCGTTGTCCGTGCTG
DNA 2: CAGCACGGACAACGGAACACAGACCGCGTGGTCTAATAACGCAAAAAAAACGAGTCCATT
B22: dBr_Jan07_17989 (dsDNA)
DNA 1: GTCACGTGAATGCGACCCGCCAATTGGAAATTAAATGTCTGTGTTCCGTTGTCCGTGCTG
DNA 2: CAGCACGGACAACGGAACACAGACATTTAATTTCCAATTGGCGGGTCGCATTCACGTGAC
B23: dBr_Jan07_09181 (dsDNA)
DNA 1: CACATTATTTCACACGTGGACGGCACCCACAAACACGTCTGTGTTCCGTTGTCCGTGCTG
DNA 2: CAGCACGGACAACGGAACACAGACGTGTTTGTGGGTGCCGTCCACGTGTGAAATAATGTG
B24: dBr_Jan07_17567 (dsDNA)
DNA 1: CCAAGAGGACCACGTGCTTTGGTCTCTAACTCGTATGTCTGTGTTCCGTTGTCCGTGCTG
DNA 2: CAGCACGGACAACGGAACACAGACATACGAGTTAGAGACCAAAGCACGTGGTCCTCTTGG
B25: dBr_Jan07_11048 (dsDNA)
DNA 1: CGAAATCTTACATGCTCTTGGGTCTAAGACGCACGTGTCTGTGTTCCGTTGTCCGTGCTG
DNA 2: CAGCACGGACAACGGAACACAGACACGTGCGTCTTAGACCCAAGAGCATGTAAGATTTCG
B26: dBr_Jan07_20372 (dsDNA)
DNA 1: TCGTTTGTACACGTGGGTTTGCAAGAGTAAGTGTCCGTCTGTGTTCCGTTGTCCGTGCTG
DNA 2: CAGCACGGACAACGGAACACAGACGGACACTTACTCTTGCAAACCCACGTGTACAAACGA
B27: dBr_Jan07_17036 (dsDNA)
DNA 1: ACATTTCTCCGCTCGTCCCACATAGCGTCACGTGGGGTCTGTGTTCCGTTGTCCGTGCTG
DNA 2: CAGCACGGACAACGGAACACAGACCCCACGTGACGCTATGTGGGACGAGCGGAGAAATGT
B28: dBr_Jan07_41742 (dsDNA)
DNA 1: AGAGTCATTGGGGAGGCAAAATTCCCACGTGTATCGGTCTGTGTTCCGTTGTCCGTGCTG
DNA 2: CAGCACGGACAACGGAACACAGACCGATACACGTGGGAATTTTGCCTCCCCAATGACTCT
B29: dBr_Jan07_15832 (dsDNA)
DNA 1: TGCTAGGTGCGGGGCGTGCCATTGTACCACGTGGCTGTCTGTGTTCCGTTGTCCGTGCTG
DNA 2: CAGCACGGACAACGGAACACAGACAGCCACGTGGTACAATGGCACGCCCCGCACCTAGCA
B30: dBr_Jan07_06714 (dsDNA)
DNA 1: TTCCGCGTGGACGTGACATCGTAGACGATTACCCACGTCTGTGTTCCGTTGTCCGTGCTG
DNA 2: CAGCACGGACAACGGAACACAGACGTGGGTAATCGTCTACGATGTCACGTCCACGCGGAA
B31: dBr_Jan07_20580 (dsDNA)
DNA 1: AAATACCTATCGATAACCACTCACGTGGTGGTTCGCGTCTGTGTTCCGTTGTCCGTGCTG
DNA 2: CAGCACGGACAACGGAACACAGACGCGAACCACCACGTGAGTGGTTATCGATAGGTATTT
B32: dBr_Jan07_23881 (dsDNA)
DNA 1: CATATTAGACCGGCGTATACGCACGTGGCGTAGATTGTCTGTGTTCCGTTGTCCGTGCTG
DNA 2: CAGCACGGACAACGGAACACAGACAATCTACGCCACGTGCGTATACGCCGGTCTAATATG

Chain of WT Max (P61244 other isoform, or with tags, fused parts or gaps M65Nle): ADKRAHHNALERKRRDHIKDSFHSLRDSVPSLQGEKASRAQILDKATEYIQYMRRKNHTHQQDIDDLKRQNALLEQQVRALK

This data set concerns the target WT Max (Homo sapiens, UniProt P61244-2 13-93, M65Nle, norleucine written as M; other non-natural residues written as X). Description: PBM; 50-200 nM protein; PBS, 2% milk, BSA, salmon testes DNA, 0.02% Triton X-100. The note with it: chain copies: 2; label: surface-attached array probe.
B1: the binding signal was 4.16 robust z of log adjusted intensity (ours), mean of two arrays. In the case of B2 it was 4.26 robust z of log adjusted intensity (ours), mean of two arrays. In the case of B3 it was 3.94 robust z of log adjusted intensity (ours), mean of two arrays; in that of B4, 3.92 robust z of log adjusted intensity (ours), mean of two arrays. With B5, the binding signal was 4.13 robust z of log adjusted intensity (ours), mean of two arrays. In the case of B6 it was 4.44 robust z of log adjusted intensity (ours), mean of two arrays; in that of B7, 3.89 robust z of log adjusted intensity (ours), mean of two arrays. In the case of B8 it was 3.73 robust z of log adjusted intensity (ours), mean of two arrays. In the case of B9 it was 5.85 robust z of log adjusted intensity (ours), mean of two arrays. Take B10: the binding signal is 3.82 robust z of log adjusted intensity (ours), mean of two arrays. As for B11, the binding signal is 4.27 robust z of log adjusted intensity (ours), mean of two arrays. In the case of B12 it was 3.99 robust z of log adjusted intensity (ours), mean of two arrays; in that of B13, 4.48 robust z of log adjusted intensity (ours), mean of two arrays; in that of B14, 4.08 robust z of log adjusted intensity (ours), mean of two arrays.

Turning to B15, the binding signal is 4.44 robust z of log adjusted intensity (ours), mean of two arrays. In the case of B16 it was 5.5 robust z of log adjusted intensity (ours), mean of two arrays.

Consider B17, for which the binding signal was 4.16 robust z of log adjusted intensity (ours), mean of two arrays. In the case of B18 it was 3.64 robust z of log adjusted intensity (ours), mean of two arrays. In the case of B19 it was 4.12 robust z of log adjusted intensity (ours), mean of two arrays. In the case of B20 it was 4.08 robust z of log adjusted intensity (ours), mean of two arrays; in that of B21, 3.78 robust z of log adjusted intensity (ours), mean of two arrays. In the case of B22, the binding signal is 4.17 robust z of log adjusted intensity (ours), mean of two arrays. For the molecule B23, the binding signal is 3.99 robust z of log adjusted intensity (ours), mean of two arrays. In the case of B24 it was 3.82 robust z of log adjusted intensity (ours), mean of two arrays; in that of B25, 5.56 robust z of log adjusted intensity (ours), mean of two arrays; in that of B26, 4.3 robust z of log adjusted intensity (ours), mean of two arrays. In the case of B27 it was 4.03 robust z of log adjusted intensity (ours), mean of two arrays; in that of B28, 4.07 robust z of log adjusted intensity (ours), mean of two arrays; in that of B29, 3.84 robust z of log adjusted intensity (ours), mean of two arrays. Take B30: the binding signal was 4.26 robust z of log adjusted intensity (ours), mean of two arrays. In the case of B31 it was 3.85 robust z of log adjusted intensity (ours), mean of two arrays; in that of B32, 4.35 robust z of log adjusted intensity (ours), mean of two arrays.
